According to patent US20060068468A1 (ACCELERON PHARMA, published 2006):
Positions count from the first letter of the chain named.

T1: Activin A (UniProt P08476 311-426)
T1 construct: also called ActA
T1 sequence (looked up): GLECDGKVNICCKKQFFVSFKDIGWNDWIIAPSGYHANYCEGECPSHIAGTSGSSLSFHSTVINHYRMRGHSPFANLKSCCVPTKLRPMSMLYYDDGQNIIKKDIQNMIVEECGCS

T2: GDF-11 (UniProt O95390 299-407)
T2 construct: also called Growth and Differentiation Factor-11; BMP11
T2 sequence (looked up): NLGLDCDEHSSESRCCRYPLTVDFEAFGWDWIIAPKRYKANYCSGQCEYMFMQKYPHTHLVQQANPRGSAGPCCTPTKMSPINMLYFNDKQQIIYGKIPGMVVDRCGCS

B1: ActRIIB-Fc K74F (Fc fusion)
chain: SGRGEAETRECIYYNANWELERTNQSGLERCEGEQDKRLHCYASWANSSGTIELVFKGCWLDDFNCYDRQECVATEENPQVYFCCCEGNFCNERFTHLPEAGGGTHTCPPCPAPELLGGPSVFLFPPKPKDTLMISRTPEVTCVVVDVSHEDPEVKFNWYVDGVEVHNAKTKPREEQYNSTYRVVSVLTVLHQDWLNGKEYKCKVSNKALPVPIEKTISKAKGQPREPQVYTLPPSREEMTKNQVSLTCLVKGFYPSDIAVEWESNGQPENNYKTTPPVLDSDGSFFLYSKLTVDKSRWQQGNVFSCSVMHEALHNHYTQKSLSLSPGK
notes: Mutation in the background ActRIIB-Fc
B2: ActRIIB-Fc K74Y (Fc fusion)
chain: B1 chain with F56Y
notes: as for B1
B3: ActRIIB-Fc K74I (Fc fusion)
chain: B1 chain with F56I
notes: as for B1
B4: ActRIIB-Fc L79A (Fc fusion)
chain: B1 chain with F56K, L61A
notes: as for B1
B5: ActRIIB-Fc D54A (Fc fusion)
chain: B1 chain with D36A, F56K
notes: as for B1
B6: background ActRIIB-Fc fusion, WT (64A) (Fc fusion)
chain: B1 chain with F56K
notes: Made in HEK293T or CHO cells and purified on protein A; also called wild-type (background A64) ActRIIB-Fc; background A64 construct
B7: ActRIIB-Fc R40A (Fc fusion)
chain: B1 chain with R22A, F56K
notes: as for B1
B8: ActRIIB-Fc K74A (Fc fusion)
chain: B1 chain with F56A
notes: as for B1
B9: ActRIIB-Fc +15tail (Fc fusion)
chain: SGRGEAETRECIYYNANWELERTNQSGLERCEGEQDKRLHCYASWANSSGTIELVKKGCWLDDFNCYDRQECVATEENPQVYFCCCEGNFCNERFTHLPEAGGPEVTYEPPPTAPTGGGTHTCPPCPAPELLGGPSVFLFPPKPKDTLMISRTPEVTCVVVDVSHEDPEVKFNWYVDGVEVHNAKTKPREEQYNSTYRVVSVLTVLHQDWLNGKEYKCKVSNKALPVPIEKTISKAKGQPREPQVYTLPPSREEMTKNQVSLTCLVKGFYPSDIAVEWESNGQPENNYKTTPPVLDSDGSFFLYSKLTVDKSRWQQGNVFSCSVMHEALHNHYTQKSLSLSPGK
notes: also called ActRIIB-Fc with the C-terminal 15 amino acids of the extracellular domain

Target: T1, Activin A
Test: BiaCore, ligand immobilized on CM5 chip
Protocol: (§1) GDF-11 or Activin A (“ActA”) were immobilized on a BiaCore CM5 chip using standard amine coupling procedure. The ActRIIB-Fc mutant or wild-type protein was loaded onto the system, and binding was measured.

| Binder | binding result |
| --- | --- |
| B1 | no binding |
| B2 | no binding |
| B3 | no binding |

Target: T2, GDF-11
Test: BiaCore, ligand immobilized on CM5 chip
Protocol: as §1

| Binder | binding result |
| --- | --- |
| B4 | no binding |
| B5 | no binding |

Target: T1, Activin A
Test: BiaCore (SPR); ligand amine-coupled to CM5 chip, ActRIIB-Fc injected
Protocol: as §1

| Binder | Kd | binding result |
| --- | --- | --- |
| B6 | 180 nM |  |
| B4 |  | binds |
| B7 |  | binds |
| B5 |  | binds |
| B8 | 4.35 nM |  |
| B9 | ~26 nM |  |

Target: T2, GDF-11
Test: as above
Protocol: as §1

| Binder | Kd | binding result |
| --- | --- | --- |
| B6 | 260 nM |  |
| B7 |  | binds |
| B1 |  | binds |
| B2 |  | binds |
| B3 |  | binds |
| B8 | 5.3 nM |  |
| B9 | 19 nM |  |
